# In the supplement of paper PMC10126150:
# ± gives the standard deviation of the averaged measurements.
# System: ATP
# Test: switch fluorescence ratio, 500 uM ATP over buffer (Cy3 cluster intensity, sum of 5 cycles each) (fold (ratio)); higher = stronger signal-on switching upon ATP binding; sequences stand for … in TCGTCGGCAGCGTCAGATGTGTATAAGAGACAGTTTTTTTTTTTTTTTTTTTTTTTTT…TC
# Conditions: aptamer strand: ATP DNA aptamer (quencher-CACCTGGGGGAGTATTGCGGAGGAAGG + anchor), 100 nM annealed; ATP concentration: 500 uM
# Outline: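 Cy3-labelled switching-strand clusters on a modified Illumina MiSeq flow-cell were annealed to 100 nM quencher-labelled ATP aptamer and imaged first in selection buffer, then after 15 min with 500 uM ATP at 22 °C. NaOH stripping and re-annealing separated each of five buffer/ATP cycles, and clusters outside 100-1000 RFU were excluded. The fluorescence ratio sums target-cycle Cy3 intensity over buffer-cycle Cy3 intensity per cluster and averages it per switch-domain sequence.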
# 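Also: ATP exposure 15 min at 22 °C before imaging.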
row,Sequence,switch fluorescence ratio
1,GGGATTTGCG,1 ± 0.046
2,TGAGTTATTT,1.01 ± 0.012
3,GGGGGCTTAG,0.988 ± 0.038
4,TATCTTTGGG,0.981 ± 0.026
5,TCGTTGCGAG,0.9898 ± 0.0096
6,TGTAGCAGGG,1.12 ± 0.043
7,TAGTCGGTGG,0.9978 ± 0.0032
8,AAACGCCTGC,1.08 ± 0.026
9,TACTCTGGAA,4.15 ± 0.18
10,TAGATTGATG,1.0281 ± 0.00078
11,TTCGTTATTG,1.02 ± 0.026
12,GTTTCAAGCG,1.02 ± 0.025
13,AATATATTGA,0.996 ± 0.02
14,GGGTGGGGCG,1.04 ± 0.043
15,CGGTTGGTTT,1.02 ± 0.017
16,TAGGGGGAGC,1.01 ± 0.062
17,GTTGGATTTA,1.006 ± 0.0077
18,CTAAGAATAG,1.02 ± 0.021
19,AATAAAGAAT,0.973 ± 0.019
20,CTCGGGGTGT,1.02 ± 0.018
21,GCTGGCGTCA,1 ± 0.05
22,TTGCTATTTC,1 ± 0.058
23,AACGAGGAGT,1.01 ± 0.0058

row,Sequence,switch fluorescence ratio
1,TCGATAGCTG,0.935 ± 0.046
2,CGGGTCAACT,0.963 ± 0.014
3,GGCTTAATGG,1.01 ± 0.023
4,GGAATACGTT,1.08 ± 0.061
5,AGCAGGGGAC,1.18 ± 0.23
6,TAATTGTTGC,0.969 ± 0.016
7,TATAGTCATT,1.02 ± 0.022
8,TTTCACCGGG,1.16 ± 0.17
9,CGGGGTCAGT,1.02 ± 0.014
10,AAATAATTCG,0.997 ± 0.032
11,ATGCTACCGT,1.03 ± 0.049
12,CTAAGGGGGT,0.9503 ± 0.0032
13,TTCGAGGAGA,1.01 ± 0.011
14,TGGTTTAGTG,0.976 ± 0.031
15,TTGCGGCTTG,0.9923 ± 0.0088
16,AGGTTGGTCG,0.974 ± 0.064
17,AGGAGTATGA,1.03 ± 0.029
18,CATCTGCGGG,1.16 ± 0.17
19,CCAGGCTTGA,1.04 ± 0.052
20,TAATGAGGTG,1.04 ± 0.023
21,TTGCGGTAGC,1 ± 0.016
22,TTGATAATAG,1 ± 0.024
23,TTGTGAAGGG,0.9663 ± 0.0013

row,Sequence,switch fluorescence ratio
1,TTGGAGATTT,1.02 ± 0.022
2,ATGGTATAGG,1.01 ± 0.032
3,TTCATGGACA,0.99 ± 0.014
4,AGGGGGTAGG,0.978 ± 0.022
5,TCCGTCACTA,1.438 ± 0.0074
6,CAACATCTCG,0.993 ± 0.019
7,ACTTTCACGG,1.32 ± 0.044
8,AGTGTTCTCG,0.983 ± 0.017
9,CTTGGGGATC,0.979 ± 0.013
10,GTATAGTCGG,1.04 ± 0.017
11,CGGTAGTTAC,1.25 ± 0.059
12,AGTACACGTG,0.993 ± 0.026
13,TGGGGCAGCG,1.007 ± 0.0039
14,TTAATATGGA,0.999 ± 0.012
15,CATACACCTT,1.21 ± 0.032
16,AGTTGGCTTG,1.03 ± 0.03
17,CGTAGGATGT,1.02 ± 0.044
18,CGTTTATTCA,1.036 ± 0.0079
19,GGTTGGTGTG,0.967 ± 0.023
20,TTGTGTTGGT,0.999 ± 0.041
21,GATGTATATG,0.992 ± 0.018
22,ATTTTGGTTT,0.989 ± 0.025
23,TTTCGCTC,1.06 ± 0.019

row,Sequence,switch fluorescence ratio
1,ATCATGGCTT,1.03 ± 0.011
2,CCTCGGACTT,1.57 ± 0.48
3,TAACGGCATG,1.031 ± 0.0035
4,GGTGATTGTG,0.9826 ± 0.004
5,TGCAAAAGGC,0.972 ± 0.013
6,TATATAGTCT,1.024 ± 0.0086
7,TAAATTATTG,0.9768 ± 0.0079
8,TGTGTGTGAA,0.996 ± 0.035
9,ATTGTAGTGT,1.01 ± 0.025
10,GAGATTTTGT,0.998 ± 0.036
11,TGTATATTTT,0.98 ± 0.021
12,GGGGTCGTCA,1.04 ± 0.0072
13,TTCGGCCCGA,1.01 ± 0.039
14,AGTACCGGGT,1.04 ± 0.049
15,TTTACGGCGG,0.987 ± 0.021
16,GATCCTGGGT,0.974 ± 0.034
17,GGGGTCAGAC,1 ± 0.022
18,AAGGTGCTGC,1.035 ± 0.0022
19,AAGTCCCTTC,1.01 ± 0.035
20,TAATTATTTT,1.01 ± 0.03
21,AGGGGGGTGA,1.017 ± 0.0015
22,CAGCGGGACG,1.02 ± 0.035
23,AAAGGGCAAT,1.14 ± 0.18

row,Sequence,switch fluorescence ratio
1,TGTTAAGGAA,1.02 ± 0.029
2,GGGGGATGTC,1 ± 0.034
3,ATACGGGTAG,0.9821 ± 0.0052
4,GTAGGACGTC,1.02 ± 0.011
5,GTGTTAGACT,0.9618 ± 0.0092
6,GGGTTTACTG,1 ± 0.022
7,AAGCGTAGAT,1.009 ± 0.0074
8,GGGTATGCTG,0.9479 ± 0.0067
9,GACGGTAGAG,1.03 ± 0.02
10,GTCAGAACG,1.03 ± 0.014
11,ATGGGTCCTG,0.979 ± 0.048
12,CAGTCGACGG,0.993 ± 0.011
13,GAGGGATTCC,1.06 ± 0.095
14,AGGAGAAAAT,1.04 ± 0.028
15,ATACTAAGTG,1.01 ± 0.02
16,ATATTGGAAG,1.011 ± 0.01
17,GTGGGTAGAG,1 ± 0.057
18,TAACTTATAA,0.991 ± 0.0024
19,GGTTGGTGGT,1.028 ± 0.0064
20,TGGGGGG,1.016 ± 0.0078
21,GGTGGAAAGG,0.982 ± 0.043
22,ATTTGTCCAA,0.993 ± 0.028
23,TTAGTTTATC,1.02 ± 0.027

row,Sequence,switch fluorescence ratio
1,CTAATCATAA,1 ± 0.052
2,ATATTTGTCA,1.03 ± 0.022
3,AGATGTTCCG,1.05 ± 0.018
4,AGCACGTATC,1.09 ± 0.059
5,ATTTGTGATG,0.994 ± 0.047
6,ATTATCTGGT,1.02 ± 0.043
7,CACGAGTTGG,1.014 ± 0.0049
8,CCATTGTTAT,0.988 ± 0.017
9,TTCCTTAGTC,1.019 ± 0.0045
10,CCTTGAAGGT,0.984 ± 0.0091
11,ACTCTTGCGG,1.01 ± 0.016
12,CAAGTGTTGG,1.01 ± 0.05
13,GTTATGGTAC,1.03 ± 0.028
14,CGTCATCCAT,0.9881 ± 0.0021
15,CCAGGTGGCT,2.64 ± 0.3
16,TATTAGGGGT,1.01 ± 0.023
17,AGTAGTAAGC,1.03 ± 0.023
18,GGGGAACGGC,0.963 ± 0.036
19,TGGCGGAACA,1.02 ± 0.017
20,ACACGGGGGC,1 ± 0.059
21,CACTGGGGGA,0.9949 ± 0.0013
22,GGGGGTCACA,0.989 ± 0.029
23,CGGGTAGTGG,0.995 ± 0.032

row,Sequence,switch fluorescence ratio
1,GACTATTGGT,0.969 ± 0.0098
2,ACCTAGCGCA,1.33 ± 0.045
3,TTGTTGCCGT,0.984 ± 0.065
4,CGGAGACGGT,0.9958 ± 0.0078
5,CGGTCAGGGG,1.11 ± 0.023
6,CCCCATTCCG,1.04 ± 0.022
7,TTTTAAGTGG,0.991 ± 0.023
8,AACGTTTTCC,1.23 ± 0.1
9,GTATTGGATA,0.998 ± 0.042
10,TCGGCGTCAG,0.9817 ± 0.0041
11,TTTTATTTTT,0.997 ± 0.028
12,CTGAGAGTAT,1 ± 0.025
13,TGGGACGTTG,0.995 ± 0.014
14,AGTGGAGGAC,1.02 ± 0.012
15,ACGAAATAGT,1.183 ± 0.0065
16,ACGGTTGTGC,1.01 ± 0.04
17,AGTTGAATTG,0.994 ± 0.022
18,TTTTTGGCAT,1.01 ± 0.033
19,TTGTTGCGTT,0.986 ± 0.025
